Test [1] concerns the target T1, asialo-glycophorin A (aGPA) (human, UniProt P02724 20-150, desialylated by mild acid treatment; carries O-linked TFα (Galβ1-3GalNAcα) structures; biotinylated in the flow cytometry assays).
T1 construct: The lambody recognises the glycans on this glycoprotein; also called asialo-GPA
T1 sequence (looked up): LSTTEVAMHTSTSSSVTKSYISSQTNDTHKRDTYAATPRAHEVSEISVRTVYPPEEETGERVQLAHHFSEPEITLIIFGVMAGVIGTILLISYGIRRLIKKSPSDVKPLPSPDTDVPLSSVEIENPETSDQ
Nature of the test: SPR (Biacore T200), lambody captured by anti-His mAb, aGPA as analyte at 312 pM to 20 nM, 1:1 Langmuir fit.
Procedure: Reference subtracted and blank subtracted binding data were fitted with a 1:1 Langmuir binding model to determine the association and dissociation constants. The equilibrium dissociation constants were calculated from these values.
(§1) All SPR binding experiments were performed using Biacore T200 (GE Healthcare). The running and sample buffer was HBS-EP+ (10 mM HEPES, pH 7.4, 150 mM NaCl, 3 mM EDTA, 0.05% Polysorbate 20). All measurements were performed at 25° C. Anti-His antibody (His capture kit, GE Healthcare) was immobilized by amine coupling to Sensor Chip CM5. VLRB.aGPA.23 and Mut.10 were diluted to 10 μg/mL and injected in each cycle at 10 μL/min for 30 seconds, to capture approximately 300 RU. […] Regeneration of the anti-His surface was accomplished using a 60 second injection of 10 mM glycine-HCl pH 1.5. The reference subtracted SPR binding curves were blank subtracted, and curve fitting was performed with a 1:1 model to obtain kinetic parameters using the Biacore T200 Evaluation software.

Test [2] concerns the target T1, asialo-glycophorin A (aGPA). Nature of the test: SPR (Biacore T200), lambody captured via anti-His mAb, aGPA as analyte, 1:1 Langmuir fit. Background: In SPR one partner is held on a chip, and binding of the other changes the refractive index at the surface.
Procedure: All SPR binding experiments were performed using Biacore T200 (GE Healthcare). The running and sample buffer was HBS-EP+ (10 mM HEPES, pH 7.4, 150 mM NaCl, 3 mM EDTA, 0.05% Polysorbate 20). All measurements were performed at 25° C. Anti-His antibody (His capture kit, GE Healthcare) was immobilized by amine coupling to Sensor Chip CM5. […] Regeneration of the anti-His surface was accomplished using a 60 second injection of 10 mM glycine-HCl pH 1.5. The reference subtracted SPR binding curves were blank subtracted, and curve fitting was performed with a 1:1 model to obtain kinetic parameters using the Biacore T200 Evaluation software.
Test [3] has the same target. Nature of the test: SPR (Biacore T200), lambody captured via anti-His mAb, aGPA as analyte.
Procedure: as §1

B1: lambody VLRB.aGPA.23 (as used in SPR) (other)
chain: ACPSQCSCSGTEVNCAGKSLASVPAGIPTTTRVLYLNSNQITKLEPGVFDRLANLRELHLWGNQLVSLPPGVFDNLANLEKLWLNSNQLTSLPAGLFDRLVNLEHLGLCCMKLTELPSGAFDKLTRLKQLGLDQNQLKSIPDGAFARLPSLTHVWLHTNPWDCQCTDILYLSGWVAQHSSIVGEGWPWRHSPDSAKCSGTNTPVRAVTEASTSPSKCP
notes: Dimeric, yeast-secreted lambody captured on the chip through an anti-His antibody; also called VLRB.GPA.23; not shown: 6-His and FLAG tags plus a dimerization domain
In general, Kd refers to the free concentration of one partner at which half of the binding sites on the other are occupied at equilibrium, for simple one-to-one binding. As a reminder, the koff is the rate constant with which the complex falls apart. As a reminder, the kon is the second-order rate constant of association. Read a high kon as fast association. Turning to B1, in test [1], the affinity, expressed as Kd, was 1.09 nM; the koff was 0.000331 s⁻¹; the kon was determined as 303000 M⁻¹ s⁻¹. Further, the Kd in test [2] is 1.1 nM.

B2: Mut.10 (affinity-improved clone of VLRB.aGPA.23) (other)
chain: ACPSQCSCSGTEVNCAGKNLASVPAGIPTTTRVLYLNSNQITKLEPGVFDRLANLRELHLWGNQLVSLPPGVFDNLANLEKLWLNGNQLTSLPAGLFDRLVNLERLGLCCMMLTELPSGAFDKLTRLKQLGLDQNQLKSIPDGAFARLPSLTHVWLHTNPWDCQCTDILYLSGWVAQHSSIVGEGWPWRHSPDSAKCSGTNTPVRAVSEASTSPSKCP
notes: also called clone Mut.10; not shown: 6-His and FLAG tags plus a dimerization domain
B2: the “fold higher affinity than VLRB.aGPA.23” value in test [3] was 1.7 fold. In test [1], this molecule came in with a Kd of 0.637 nM, a koff of 0.000222 s⁻¹ and an association rate constant (kon) of 349000 M⁻¹ s⁻¹.

These data come from patent US20140322825A1 (UNIVERSITY OF MARYLAND BALTIMORE, published 2014).
